Biological target: the molecule itself
Assay: cross-linking

B1: endogenous LGR5 of LoVo cells (receptor, human (endogenous in LoVo), UniProt O75473 22-907, looked up)
chain: GSSPRSGVLLRGCPTHCHCEPDGRMLLRVDCSDLGLSELPSNLSVFTSYLDLSMNNISQLLPNPLPSLRFLEELRLAGNALTYIPKGAFTGLYSLKVLMLQNNQLRHVPTEALQNLRSLQSLRLDANHISYVPPSCFSGLHSLRHLWLDDNALTEIPVQAFRSLSALQAMTLALNKIHHIPDYAFGNLSSLVVLHLHNNRIHSLGKKCFDGLHSLETLDLNYNNLDEFPTAIRTLSNLKELGFHSNNIRSIPEKAFVGNPSLITIHFYDNPIQFVGRSAFQHLPELRTLTLNGASQITEFPDLTGTANLESLTLTGAQISSLPQTVCNQLPNLQVLDLSYNLLEDLPSFSVCQKLQKIDLRHNEIYEIKVDTFQQLLSLRSLNLAWNKIAIIHPNAFSTLPSLIKLDLSSNLLSSFPITGLHGLTHLKLTGNHALQSLISSENFPELKVIEMPYAYQCCAFGVCENAYKISNQWNKGDNSSMDDLHKKDAGMFQAQDERDLEDFLLDFEEDLKALHSVQCSPSPGPFKPCEHLLDGWLIRIGVWTIAVLALTCNALVTSTVFRSPLYISPIKLLIGVIAAVNMLTGVSSAVLAGVDAFTFGSFARHGAWWENGVGCHVIGFLSIFASESSVFLLTLAALERGFSVKYSAKFETKAPFSSLKVIILLCALLALTMAAVPLLGGSKYGASPLCLPLPFGEPSTMGYMVALILLNSLCFLMMTIAYTKLYCNLDKGDLENIWDCSMVKHIALLLFTNCILNCPVAFLSFSSLINLTFISPEVIKFILLVVVPLPACLNPLLYILFNPHFKEDLVSLRKQTYVWTRSKHPSLMSINSDDVEKQSCDSTQALVTFTSSSITYDLPPSSVPSPAYPVTESCHLSSVAFVPCL
  stoichiometry N: 2

From article PMC7905944 (Science signaling, 2020)
